Data as given in the supplement of paper PMC9112550, “Optimization of the antimicrobial peptide Bac7 by deep mutational scanning” (BMC Biology, 2022).

system: Escherichia coli TOP10; experiment: shrunken log2 fold change of peptide-encoding DNA abundance (4.5 h post-induction vs induction); higher = less antimicrobial activity (less host growth inhibition); details: time post-induction: 4.5 h; library: site-saturation at positions 5, 18, 19, 20
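Note: peptides expressed intracellularly from a pBAD plasmid library in pooled LB shake-flask culture, induced with 0.3% L-arabinose, DNA abundance read by NGS, three biological replicates, DESeq2 with apeglm shrinkage.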

Sequence | shrunken log2 fold change
RRIRGRPPRLPRPRPRPMCCPRP | 0.164
RRIRYRPPRLPRPRPRPNQGPRP | -0.00893
RRIRKRPPRLPRPRPRPGGYPRP | 0.61
RRIRHRPPRLPRPRPRPRDIPRP | 0.115
RRIRCRPPRLPRPRPRPYLSPRP | -0.577
RRIRPRPPRLPRPRPRPIFDPRP | -0.137
RRIRPRPPRLPRPRPRPYSPPRP | -1.23
RRIRHRPPRLPRPRPRPYWSPRP | -0.171
RRIRIRPPRLPRPRPRPSVNPRP | -0.225
RRIRIRPPRLPRPRPRPMKYPRP | -0.104
RRIRIRPPRLPRPRPRPEFPPRP | -0.0115
RRIRMRPPRLPRPRPRPIGDPRP | 0.0215
RRIRCRPPRLPRPRPRPEYQPRP | 0.123
RRIRTRPPRLPRPRPRPHAAPRP | 0.0465
RRIRMRPPRLPRPRPRPVRSPRP | 1.23
RRIRDRPPRLPRPRPRPIVIPRP | -0.259
RRIRNRPPRLPRPRPRPVDQPRP | -0.213
RRIRDRPPRLPRPRPRPDIIPRP | 0.221
RRIRARPPRLPRPRPRPPWNPRP | 0.427
RRIRIRPPRLPRPRPRPIACPRP | -0.0842
RRIRKRPPRLPRPRPRPHFGPRP | -0.067
RRIRFRPPRLPRPRPRPAFRPRP | 0.132
RRIRFRPPRLPRPRPRPVGRPRP | 0.382
RRIRIRPPRLPRPRPRPNPNPRP | -0.556
RRIRERPPRLPRPRPRPSHIPRP | -0.25

Sequence | shrunken log2 fold change
RRIRARPPRLPRPRPRPWDSPRP | -0.277
RRIRPRPPRLPRPRPRPANVPRP | -0.122
RRIRCRPPRLPRPRPRPYEFPRP | -0.0684
RRIRVRPPRLPRPRPRPPIQPRP | -0.245
RRIRIRPPRLPRPRPRPVRQPRP | -0.0328
RRIRFRPPRLPRPRPRPQSSPRP | 0.0748
RRIRQRPPRLPRPRPRPECIPRP | -0.269
RRIRFRPPRLPRPRPRPRLNPRP | -0.228
RRIRQRPPRLPRPRPRPSIMPRP | -0.0993
RRIRRRPPRLPRPRPRPFHHPRP | -0.0883
RRIRYRPPRLPRPRPRPVSAPRP | -0.332
RRIRDRPPRLPRPRPRPTADPRP | 0.133
RRIRARPPRLPRPRPRPWCVPRP | 0.201
RRIRMRPPRLPRPRPRPFAHPRP | -0.00592
RRIRERPPRLPRPRPRPSLWPRP | -0.151
RRIRWRPPRLPRPRPRPCFSPRP | -0.176
RRIRTRPPRLPRPRPRPNGTPRP | -0.402
RRIRGRPPRLPRPRPRPRHDPRP | 0.417
RRIRLRPPRLPRPRPRPAAQPRP | 1.25
RRIRPRPPRLPRPRPRPITFPRP | -0.112
RRIRGRPPRLPRPRPRPQWQPRP | -0.134
RRIRVRPPRLPRPRPRPLTIPRP | -0.329
RRIRPRPPRLPRPRPRPHLKPRP | -0.000265
RRIRVRPPRLPRPRPRPGPVPRP | 0.287
RRIRRRPPRLPRPRPRPLCYPRP | -0.236

Sequence | shrunken log2 fold change
RRIRVRPPRLPRPRPRPQLAPRP | 0.402
RRIRVRPPRLPRPRPRPNFHPRP | -0.115
RRIRTRPPRLPRPRPRPPVSPRP | 0.147
RRIRPRPPRLPRPRPRPNHFPRP | -0.592
RRIRFRPPRLPRPRPRPLIFPRP | -0.666
RRIRRRPPRLPRPRPRPKSWPRP | 0.249
RRIRIRPPRLPRPRPRPTPSPRP | 0.0658
RRIRIRPPRLPRPRPRPKIKPRP | -0.696
RRIRNRPPRLPRPRPRPYTEPRP | -0.695
RRIRCRPPRLPRPRPRPGVIPRP | -0.0294
RRIRVRPPRLPRPRPRPMGAPRP | 0.813
RRIRPRPPRLPRPRPRPGMMPRP | -0.111
RRIRQRPPRLPRPRPRPEFCPRP | 0.0723
RRIRLRPPRLPRPRPRPDENPRP | 0.087
RRIRARPPRLPRPRPRPQEGPRP | -0.0912
RRIRFRPPRLPRPRPRPLNPPRP | -0.1
RRIRMRPPRLPRPRPRPINRPRP | -0.0561
RRIRPRPPRLPRPRPRPISKPRP | -0.306
RRIRGRPPRLPRPRPRPDLMPRP | 0.878
RRIRDRPPRLPRPRPRPSKKPRP | -0.217
RRIRTRPPRLPRPRPRPMGMPRP | -0.12
RRIRYRPPRLPRPRPRPMNTPRP | -1.25
RRIRWRPPRLPRPRPRPLFWPRP | 0.373
RRIRVRPPRLPRPRPRPGGTPRP | 0.0237
RRIRFRPPRLPRPRPRPYSTPRP | 0.0586
